Laboratory results taken from US5866538A, “Insulin preparations containing NaCl” (Novo Nordisk A/S, priority 1996, dated 1999).

Columns and labels:
[1] = Stability tests of Asp^B28 human insulin preparations in Penfill cartridges, varying NaCl (Example II); type: physicochemical; conditions: phosphate 13.5 mM, 19.6 μg Zn/100 U insulin, pH 7.4
Experimental: 370.4 mg AspB28 human insulin was dissolved in water by adding 1.6 ml 0.2N HCl and 49 μl zinc chloride solution (40 mg Zn/ml). 40 g of a solution containing 40 mg/ml glycerol, 3.75 mg/g phenol and 4.30 mg/g m-cresol was added to the insulin solution while mixing. 20 g of a solution containing a) 12.0 mg/g disodium phosphate dihydrate+5 μl/g 2N sodium hydroxide, b) 12.0 mg/g disodium phosphate dihydrate+5 μl/g 2N sodium hydroxide+5 mg/g sodium chloride or c) 12.0 mg/g disodium phosphate dihydrate+5 μl/g 2N sodium hydroxide+10 mg/g sodium chloride was added while mixing. pH was adjusted to pH 7.40±0.05 and water added up to 100 ml. The Asp^B28 Human insulin preparations were introduced into Penfill® cartridges and subjected to stability tests at 25° C. and 37° C. The stability data obtained at the two different temperatures and at a phosphate concentration of 13.5 mM, 19.6 μg Zn/100 U insulin and pH=7.4 are summarized in Table 2.

[2] = Stability tests of Asp^B28 human insulin preparations in Penfill cartridges, varying phosphate and NaCl (Example IV); type: physicochemical; conditions: 19.6 μg Zn/100 U insulin, pH 7.4
Experimental: 375.7 mg Asp^B28 human insulin was dissolved in water by adding 1.6 ml 0.2N HCl and 49 μl zinc chloride solution (40 mg Zn/ml). 20 g of a solution containing 80 mg/g glycerol, 7.50 mg/g phenol and 8.60 mg/g m-cresol was added to the solution while mixing. Varying amounts (3.71 g to 6.71 g) of a solution containing 24.0 mg/g disodium phosphate dihydrate and 11 μl/g 2N sodium hydroxide was added while mixing, finally varying amounts (0 g to 3.65 g) of a solution containing 40 mg/g sodium chloride were added while mixing so as to obtain a sodium chloride concentration mentioned in table 6. pH was adjusted to pH 7.40±0.05 and water added up to 100 ml. The Asp^B28 Human insulin preparations were introduced into Penfill® cartridges and subjected to stability tests at 25° C. and 37° C. The stability data at the two different temperatures and three different phosphate concentrations and at 19.6 μg Zn/100 U insulin and pH=7.4 are summarized in Tables 4, 5 and 6.

[3] = 8 months at 25° C., NaCl added 0 mM, total conc. of Cl^- 4.4
[4] = 8 months at 25° C., NaCl added 17 mM, total conc. of Cl^- 20.8
[5] = 8 months at 25° C., NaCl added 34 mM, total conc. of Cl^- 37.8
[6] = 8 weeks at 37° C., NaCl added 0 mM, total conc. of Cl^- 4.4
[7] = 8 weeks at 37° C., NaCl added 17 mM, total conc. of Cl^- 20.8
[8] = 8 weeks at 37° C., NaCl added 34 mM, total conc. of Cl^- 37.8
[9] = 6 weeks at 37° C., NaCl added 0 mM, total Cl^- 3.8 mM, phosphate 5 mM
[10] = 6 weeks at 37° C., NaCl added 0 mM, total Cl^- 3.8 mM, phosphate 7 mM
[11] = 6 weeks at 37° C., NaCl added 0 mM, total Cl^- 3.8 mM, phosphate 9 mM
[12] = 6 weeks at 37° C., NaCl added 5 mM, total Cl^- 8.8 mM, phosphate 5 mM
[13] = 6 weeks at 37° C., NaCl added 5 mM, total Cl^- 8.8 mM, phosphate 7 mM
[14] = 6 weeks at 37° C., NaCl added 5 mM, total Cl^- 8.8 mM, phosphate 9 mM
[15] = 6 weeks at 37° C., NaCl added 10 mM, total Cl^- 13.8 mM, phosphate 5 mM
[16] = 6 weeks at 37° C., NaCl added 10 mM, total Cl^- 13.8 mM, phosphate 7 mM
[17] = 6 weeks at 37° C., NaCl added 10 mM, total Cl^- 13.8 mM, phosphate 9 mM
[18] = 6 weeks at 37° C., NaCl added 15 mM, total Cl^- 18.8 mM, phosphate 5 mM
[19] = 6 weeks at 37° C., NaCl added 15 mM, total Cl^- 18.8 mM, phosphate 7 mM
[20] = 6 weeks at 37° C., NaCl added 15 mM, total Cl^- 18.8 mM, phosphate 9 mM
[21] = 6 weeks at 37° C., NaCl added 20 mM, total Cl^- 23.8 mM, phosphate 5 mM
[22] = 6 weeks at 37° C., NaCl added 20 mM, total Cl^- 23.8 mM, phosphate 7 mM
[23] = 6 weeks at 37° C., NaCl added 20 mM, total Cl^- 23.8 mM, phosphate 9 mM
[24] = 6 weeks at 37° C., NaCl added 25 mM, total Cl^- 28.8 mM, phosphate 5 mM
[25] = 6 weeks at 37° C., NaCl added 25 mM, total Cl^- 28.8 mM, phosphate 7 mM
[26] = 6 weeks at 37° C., NaCl added 25 mM, total Cl^- 28.8 mM, phosphate 9 mM
[27] = 12 weeks at 25° C., NaCl added 0 mM, total Cl^- 3.8 mM, phosphate 5 mM
[28] = 12 weeks at 25° C., NaCl added 0 mM, total Cl^- 3.8 mM, phosphate 7 mM
[29] = 12 weeks at 25° C., NaCl added 5 mM, total Cl^- 8.8 mM, phosphate 5 mM
[30] = 12 weeks at 25° C., NaCl added 5 mM, total Cl^- 8.8 mM, phosphate 7 mM
[31] = 12 weeks at 25° C., NaCl added 5 mM, total Cl^- 8.8 mM, phosphate 9 mM
[32] = 12 weeks at 25° C., NaCl added 10 mM, total Cl^- 13.8 mM, phosphate 5 mM
[33] = 12 weeks at 25° C., NaCl added 10 mM, total Cl^- 13.8 mM, phosphate 7 mM
[34] = 12 weeks at 25° C., NaCl added 10 mM, total Cl^- 13.8 mM, phosphate 9 mM
[35] = 12 weeks at 25° C., NaCl added 15 mM, total Cl^- 18.8 mM, phosphate 5 mM
[36] = 12 weeks at 25° C., NaCl added 15 mM, total Cl^- 18.8 mM, phosphate 7 mM
[37] = 12 weeks at 25° C., NaCl added 15 mM, total Cl^- 18.8 mM, phosphate 9 mM
[38] = 12 weeks at 25° C., NaCl added 20 mM, total Cl^- 23.8 mM, phosphate 5 mM
[39] = 12 weeks at 25° C., NaCl added 20 mM, total Cl^- 23.8 mM, phosphate 7 mM
[40] = 12 weeks at 25° C., NaCl added 20 mM, total Cl^- 23.8 mM, phosphate 9 mM
[41] = 12 weeks at 25° C., NaCl added 25 mM, total Cl^- 28.8 mM, phosphate 5 mM
[42] = 12 weeks at 25° C., NaCl added 25 mM, total Cl^- 28.8 mM, phosphate 7 mM
[43] = 12 weeks at 25° C., NaCl added 25 mM, total Cl^- 28.8 mM, phosphate 9 mM

Substance: Asp^B28 human insulin
- Asp^B28 Des-amido insulins formed [1, 3]: 6.4%
- Di- & polymers formed [1, 3]: 1.0%
- Asp^B28 Des-amido insulins formed [1, 4]: 4.1%
- Di- & polymers formed [1, 4]: 0.8%
- Asp^B28 Des-amido insulins formed [1, 5]: 3.7%
- Di- & polymers formed [1, 5]: 0.8%
- Asp^B28 Des-amido insulins formed [1, 6]: 7.0%
- Di- & polymers formed [1, 6]: 1.86%
- Asp^B28 Des-amido insulins formed [1, 7]: 4.2%
- Di- & polymers formed [1, 7]: 1.29%
- Asp^B28 Des-amido insulins formed [1, 8]: 3.5%
- Di- & polymers formed [1, 8]: 1.07%
- Asp^B28 Des-amido insulins formed [2, 9]: 4.7%
- Di- & polymers formed [2, 9]: 1.4%
- Asp^B28 Des-amido insulins formed [2, 10]: 4.3%
- Di- & polymers formed [2, 10]: 1.2%
- Asp^B28 Des-amido insulins formed [2, 11]: 4.9%
- Di- & polymers formed [2, 11]: 1.2%
- Asp^B28 Des-amido insulins formed [2, 12]: 3.7%
- Di- & polymers formed [2, 12]: 1.3%
- Asp^B28 Des-amido insulins formed [2, 13]: 3.6%
- Di- & polymers formed [2, 13]: 1.2%
- Asp^B28 Des-amido insulins formed [2, 14]: 4.0%
- Di- & polymers formed [2, 14]: 1.1%
- Asp^B28 Des-amido insulins formed [2, 15]: 3.4%
- Di- & polymers formed [2, 15]: 1.2%
- Asp^B28 Des-amido insulins formed [2, 16]: 3.1%
- Di- & polymers formed [2, 16]: 1.1%
- Asp^B28 Des-amido insulins formed [2, 17]: 3.7%
- Di- & polymers formed [2, 17]: 1.0%
- Asp^B28 Des-amido insulins formed [2, 18]: 3.1%
- Di- & polymers formed [2, 18]: 1.1%
- Asp^B28 Des-amido insulins formed [2, 19]: 3.1%
- Di- & polymers formed [2, 19]: 1.0%
- Asp^B28 Des-amido insulins formed [2, 20]: 3.5%
- Di- & polymers formed [2, 20]: 1.0%
- Asp^B28 Des-amido insulins formed [2, 21]: 2.7%
- Di- & polymers formed [2, 21]: 1.1%
- Asp^B28 Des-amido insulins formed [2, 22]: 2.9%
- Di- & polymers formed [2, 22]: 1.0%
- Asp^B28 Des-amido insulins formed [2, 23]: 3.5%
- Di- & polymers formed [2, 23]: 1.0%
- Asp^B28 Des-amido insulins formed [2, 24]: 3.0%
- Di- & polymers formed [2, 24]: 0.9%
- Asp^B28 Des-amido insulins formed [2, 25]: 2.8%
- Di- & polymers formed [2, 25]: 1.1%
- Asp^B28 Des-amido insulins formed [2, 26]: 3.1%
- Di- & polymers formed [2, 26]: 0.9%
- Asp^B28 Des-amido insulins formed [2, 27]: 2.2%
- Di- & polymers formed [2, 27]: 0.5%
- Asp^B28 Des-amido insulins formed [2, 28]: 2.0%
- Di- & polymers formed [2, 28]: 0.5%
- Di- & polymers formed ([2]; 12 weeks at 25° C., NaCl added 0 mM, total Cl^- 3.8 mM, phosphate 9 mM): 0.4%
- Asp^B28 Des-amido insulins formed [2, 29]: 1.7%
- Di- & polymers formed [2, 29]: 0.4%
- Asp^B28 Des-amido insulins formed [2, 30]: 1.7%
- Di- & polymers formed [2, 30]: 0.4%
- Asp^B28 Des-amido insulins formed [2, 31]: 1.8%
- Di- & polymers formed [2, 31]: 0.4%
- Asp^B28 Des-amido insulins formed [2, 32]: 1.5%
- Di- & polymers formed [2, 32]: 0.4%
- Asp^B28 Des-amido insulins formed [2, 33]: 1.4%
- Di- & polymers formed [2, 33]: 0.4%
- Asp^B28 Des-amido insulins formed [2, 34]: 1.5%
- Di- & polymers formed [2, 34]: 0.4%
- Asp^B28 Des-amido insulins formed [2, 35]: 1.4%
- Di- & polymers formed [2, 35]: 0.4%
- Asp^B28 Des-amido insulins formed [2, 36]: 1.5%
- Di- & polymers formed [2, 36]: 0.4%
- Asp^B28 Des-amido insulins formed [2, 37]: 1.5%
- Di- & polymers formed [2, 37]: 0.4%
- Asp^B28 Des-amido insulins formed [2, 38]: 1.3%
- Di- & polymers formed [2, 38]: 0.4%
- Asp^B28 Des-amido insulins formed [2, 39]: 1.4%
- Di- & polymers formed [2, 39]: 0.4%
- Asp^B28 Des-amido insulins formed [2, 40]: 1.6%
- Di- & polymers formed [2, 40]: 0.4%
- Asp^B28 Des-amido insulins formed [2, 41]: 1.3%
- Di- & polymers formed [2, 41]: 0.4%
- Asp^B28 Des-amido insulins formed [2, 42]: 1.3%
- Di- & polymers formed [2, 42]: 0.4%
- Asp^B28 Des-amido insulins formed [2, 43]: 1.4%
- Di- & polymers formed [2, 43]: 0.4%
